The record followed here is patent US20100330090A1.

A word on the Kd: it is the concentration at which binding is half-saturated. In general, koff refers to the rate constant with which the complex falls apart. As usually defined, the kon is the second-order rate constant of association.

Assay [1] has as its target recombinant human Par-1 antigen (protease activated receptor-1) (human) (UniProt P25116). Put plainly: BLI (ForteBio Octet), Experiment 1, Fab at 1E-8 M. In general terms: BLI is a label-free optical method that tracks binding on a fibre tip over time.
Assay [2] shares this target. As to the kind of experiment: BLI (ForteBio Octet), Experiment 2, Fab at 2.5E-8 M.

B1: LDS896 (Fab, V domains shown)
VH: EVQLVQSGAEVKKPGSSVKVSCKVSGGTFSNYVFNWVRQAPGQGLEWMGVINPHSGRTRYNQKFKGRVTMTTDTSTSTAYMELRSLTSDDTAVYYCARDDGPSHWYFDVWGQGTTVTVSS
VL: DIVMTQSPLSLPVTPGEPASISCRSSQSLLHRNGNNYLEWYLQKPGQSPRLLIYKISNRFSGVPDRFSGSGAGTDFTLKISRVEAEDVGVYYCFQGSHVPFTFGQGTKLEIK
modifications: Fab constant regions not given
As for B1, in assay [1], the equilibrium dissociation constant (Kd) came out at 1.18 nM, the koff came to 0.000311 s⁻¹ and the kon is 265000 M⁻¹ s⁻¹.

B2: LDW653 (Fab, V domains shown)
VH: QVQLVQSGAEVKKPGASVKVSCKASGYTFNSYYMNWVRQAPGQGLEWMGVIDPHGGRTRYNQKFKGRVTMTTDTSTSTVYMELSSLRSEDTAVYYCARDDGPSMWYFDVWGQGTTVTVSS
VL: DIVMTQSPLSLPVTPGEPASISCRSSQSLLHRNGNNYLEWYLQKPGQSPRLLIYKISNRFSGVPDRFSGSGAGTDFTLKISRVEAEDVGVYYCFQGSSVPFTFGQGTKLEIK
modifications: Fab constant regions not given
As for B2, in assay [2], the Kd was determined as 1.13 nM, the off-rate constant (koff) was found to be 0.000293 s⁻¹ and the association rate constant (kon) stood at 259000 M⁻¹ s⁻¹.

B3: LDS900 (Fab, V domains shown)
VH: QVQLVQSGAEVKKPGASVKVSCKASGYTFNSYYMNWVRQAPGQGLEWMGVIDPHGGRTRYNQKFKGRVTMTTDTSTSTAYMELRSLTSDDTAVYYCARDDGPSLWYFDVWGQGTTVTVSS
VL: DIVMTQSPLSLPVTPGEPASISCRSSQSLLHRNGNNYLEWYLQKPGQSPRLLIYKISNRFSGVPDRFSGSGAGTDFTLKISRVEAEDVGVYYCFQGSHVPFTFGQGTKLEIK
modifications: Fab constant regions not given
B3: in assay [2], the Kd worked out at 1.47 nM, the koff was determined as 0.000289 s⁻¹ and the kon came to 196000 M⁻¹ s⁻¹.
